Measurements from the supplement of paper PMC7125110.
± gives the standard error. Fewer inactive variants are shown than the library holds.

B1: glmS ribozyme (parent)
chain: AUAAAAGCGCCAGAACUACAGAAAUGUAGUUGACGAGGAGGAGGUUUAUCGAAUUUUCGGCGGAUGCCUCCAAA

Variants of: B1
Experiment: self-cleavage kobs at 2500 uM GlcN6P; higher = faster cleavage; RNA array
Details: with glucosamine-6-phosphate
In short: (§1)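 Using a hybridised Cy3 probe at 37 °C, barcoded ribozyme variants transcribed in situ by E. coli RNA polymerase on sequenced MiSeq chips were monitored across tiles imaged over ~14 h. The flow contained glucosamine-6-phosphate from 40 μM to 10 mM in HEPES/KCl/Mg(OAc)2 buffer. Signals were normalised to baseline and to non-cleaving reference variants before per-tile medians were fit to one- or two-exponential decays to yield kobs. Weighted Michaelis–Menten fits across concentrations gave kcat and KM.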

Variant | self-cleavage kobs at 2500 uM GlcN6P [s⁻¹]
AUAAAAGCGCCAGAACUACAGAAAUGUAGUUUACGAGGAGGCGGUUUAUCGACUAUUCGGCGGAUGCCUCCAAA | < 1e-05
AUAAAAGCGCUAGAACUACAGAAAUGUAGUUGACCAGGAGGAGGUUGAUCGAAUUUUCGGCGAAUGCCUCCAAA | < 1e-05
AUAAAAGCGCCAGUACUACAGAAAUGUACUUGACGAGGAGGAGUUUUAUCGAAUUUUCGGCGGAUGCCUCCAAA | < 1e-05
AUAAAAGCGACAGACCUACAGAAAUGUAGUUGACGAGGAGGCGGUUUAUCGAAUUUUCGGCGGAUGCCUCCAAA | < 1e-05
AUAAAAGCGCCAGAACUACAGAAAUGUAGUUGACGAGGAUGAGGUUUAUCGAAUUUUCGGCGGAUUUCUCCAAA | < 1e-05
AUAAAAGCGCCAGAACUACAGAAAUGUAGUUGACGAGGAGGAGGAAUAUCGUAUUUUCGGCGGAUGCCUCCAAA | 8.04e-05 ± 3.5e-05
AUAAAAGCGCCAGAACUACAGAAAUGUAGUUGACGAGGAGGGGGCUUAUCGAAUUUUCGGCGGAUGCCUUCAAA | 0.00265 ± 0.00085
AUAAAAGCGCCAGAACUACAGAAAUGUAGUUGACGUGGAGGAGGUUUAUCUAAUUUUCGGCGUAUGCCUCCAAA | < 1e-05
AUAAAUGCGCCAGAACUACAGAAAUGUAGUUCAUGAGGAGGAGGUUUAUCGAAUUUUCGGCGGAUGCCUCCAAA | < 1e-05
AUAAAAGCGCCACAACUACAGAAAUGUAGUUGACGAGGAGGAGGUUUAUCGAAUAUUCGGCGGAUGCCUCCAAA | 6.85e-05 ± 1.6e-05
AUAAAAGCGCCGGAACUACAGAAAUGUAGUUGACGAGGAGGAGGUUUAUCGGAUUUUCGCCGGAGGCCUCCAAA | < 1e-05
AUAAAAGCGCCAGAACUACAGAAAUGUAGUUGACGAGGAGGAGGUUAAUCGAAUUUUCGGCGGUUGGCUCCAAA | < 1e-05
AUAAAAGCGCCAGAACUACAGAAAUGUACUUGACGAGGAGGAGCUUUAUUGAAUUUUCGGCGGAUUCCUCCAAA | < 1e-05
AUAAAAGCGCCGGAACUACAGAAAUGUAGUUGACGAGGCGGUGGUUUAUCGAAUUUUCGGCGGAUGCCUCCAAA | 3.14e-05 ± 1.5e-05
AUAAAAGUGCCAGAACUACAGAAAUGUAGUUGACGAGGAGGAGGUUUAUCGAAUUUUCGGAGGAUGCUUCCAAA | < 1e-05
AUAAAAGCGCCAGAACUACAGAAAUGUAGUCCACGAUGAGCAGGUAUAUCGAUUAUUCGGCGGCUGCCUCCAAA | < 1e-05
ACAAAAGCGCCAGAACUACAGAAAUGUAGUUGACGAGGAGGAGGUUUAUCGAAUUUUCGGGGGAUGCCUCCAAA | < 1e-05
AUAAAAGCGCCAGAACUACAGAAAUGUAGUUGACGAGGAGGAGGUUAAUCGAAUUGUCGGCGGAUGCAUCCAAA | 7.37e-05 ± 3.6e-05

Variant | self-cleavage kobs at 2500 uM GlcN6P [s⁻¹]
AUAAAAGCGCCAGAACUACAGAAAUGUAGUUGACGAGGAGUUGGUUUAUCGGAUUAUCGGCGGAUGCCUCCAAA | 3.73e-05 ± 1.2e-05
AUAAAAGCGCCAGAGCUACAGAAAUGUAGUUGACGAGGAGGAGGUUUAUCGAAUUUUCGGCGGCUACCUCCAAA | 0.000144 ± 4.8e-05
AUAAAAGCGCCAGAACUACAGAAAUGUAGUGACCGAGGAGAAGGUUUGUCGAAUUUUCGGCGGAUGCCUCCAAA | < 1e-05
AUAAAGGCGCCAGUACUACAGAAAUGUAGCUGACGAGGAGGAGGUUUUUCGAAUUUUCGGCGGAUGGGUCCAAA | 7.37e-05 ± 3e-05
AUAAAAGCGCCAGAACUACAGAAAUGUAGUUGCCUAGGAGGAGGUUUAUCGAAUUUCCGGCGGAUGCCUCCAAA | < 1e-05
AUAAAAUCGCUUGAACUACAGAAAUGUAGUUGACGAGCAGGAUGUUUAUCGAAAUUUCGGCGGAUGCCUCCAAA | < 1e-05
AUAAAAGCGCCAGAACUACAGAAAUGUAGUUGACGAGGUGGAGGUUUAACGAAUUGUCGGCGGAUGCCUCCAAA | < 1e-05
AUAAAAGCGCCAGAACUACAGAAAUGUAGUUGACGGGGAGGAGGUUUUUCGAAUUUUCGGCGGCUGCCUCCAAA | < 1e-05
AUAAAAGCGCCAUCACUACAGAAAUGUAGUUUACGAGGAGGAGGUUUAUCGAAUUUUCGGGGGAUGCCUCCAAA | < 1e-05
AUAAAAGCGCCGGCACUACAGAAAUGUAGUUGACGAGGAGGAGGUUUAUCGAAUUUUCGGCGGGUGCCUCCAAA | 4.13e-05 ± 1.6e-05
AUAAAACCGCCAGAACUACAGAAAUGUAGUUGACGAGGAGGAGGAUUAUCUAAUUUUCUGCGGAUGCCUCCAAA | < 1e-05
AUAAAAGCGCCAGAACUACAGAAAUGUAUUUGACGAGGAGGAGGAUUAUCGAACCUUCGGCCGAUGCCUCCAAA | < 1e-05
AUAAAAGCGCCAGAACUACAGAAAUGUAGUUGACGAGGAGGAGGUUUAUCGAAUUUGAGGCGGAUGCCUUGAAA | 9.31e-05 ± 2.5e-05
AUAAAAGCGCCUGAGCUACAGAAAUGUAGUUGACGAGGAGGAGGCUUAUGGAAUUUUCGGAGGAUGCCUCCAAA | < 1e-05
AUAAAAGCGCCAAAACUACAGAAAUGUAGGUGACGAGGAGGAGGUUUAUCGAAUUAUCGGCGGAUGCCUCCAAA | 7.43e-05 ± 2.5e-05
AUAAAAACCCCAGAACUACAGAAAUGUAGUUGACGCGGAGGAGGUUUAUCGAAUUUUCGGCGGAUGCCUCCAAA | < 1e-05
AUAAAAGCGUCAGGACUACAGAAAUGUAGUUGACGAGGAGGAGUUUUAUCGAAUUUUCGGCGGAUGCCUCCAAA | < 1e-05

Variants of: B1
Experiment: self-cleavage kobs at 10000 uM GlcN6P; higher = faster cleavage; RNA array
Details: with glucosamine-6-phosphate
In short: as §1

Variant | self-cleavage kobs at 10000 uM GlcN6P [s⁻¹]
AUAAAAGCGCCAGAACUACAGAAAUGUAGUUGACGAGGAGGGGGCUUAUCGAAUUUUCGGCGGAUGCCUUCAAA | 0.00197 ± 0.00052
AUAAAAGCGCCAGAACUACAGAAAUGUAGUUGACGAGGUGGAGGUUUAACGAAUUGUCGGCGGAUGCCUCCAAA | < 1e-05
